Data as given in PMC9825189.

Biological target: Csx30 (purified, for ITC) (Candidatus 'Scalindua brodae')
Test: ITC

RpoE (purified, for ITC) (natural protein)
stoichiometry N: 1
